Data: PMC4861259, “An Interplay of S-Nitrosylation and Metal Ion Binding for Astrocytic S100B Protein” (PLoS ONE, 2016)

Molecular target: the molecule itself
Assay: SEC; Superdex 75 10/300 GL; 200 μl of 100 μM protein loaded, before and after every ITC run, in the ITC buffers (10 mM TES pH 7.2 with 15 mM or 150 mM NaCl, with or without CaCl2)

B1: recombinant human S100B protein, unmodified (S100BSH) (natural protein, UniProt P04271 1-92, looked up)
chain: MSELEKAMVALIDVFHQYSGREGDKHKLKKSELKELINNELSHFLEEIKEQEVVDKVMETLDNDGDGECDFQEFMAFVAMVTTACHEFFEHE
notes: S100B protein, human, recombinant; Non-covalent homodimer; source: E. coli bacterial culture, purified (semi-preparative HPLC, C18)
stoichiometry N: 2

B2: recombinant human S100B protein, S-nitrosylated at Cys84 (S100BSNO) (natural protein, UniProt P04271 1-92, looked up)
chain: MSELEKAMVALIDVFHQYSGREGDKHKLKKSELKELINNELSHFLEEIKEQEVVDKVMETLDNDGDGECDFQEFMAFVAMVTTACHEFFEHE
modifications: S-nitrosylated cysteine (SNO) at Cys84
notes: S100B protein, human, recombinant, chemically S-nitrosylated at Cys84; Non-covalent homodimer; also called S100BNO; S-nitrosylated S100B; source: E. coli, chemically S-nitrosylated, purified (semi-preparative HPLC, C18)
stoichiometry N: 2
